Results from article PMC2659877.

What was measured:
[1] = target: β-spectrin (Homo sapiens) (UniProt P11277); experiment: ITC; conditions: cited from earlier work
[2] = target: β-spectrin (Homo sapiens) (UniProt P11277); experiment: ITC; conditions: cited from earlier work; remark: listed apart in the source
[3] = target: β-spectrin (Homo sapiens) (UniProt P11277); experiment: ITC; conditions: cited from earlier work; remark: listed apart in the source
[4] = target: β-spectrin (Homo sapiens) (UniProt P11277); experiment: ITC; conditions: cited from earlier work; remark: listed apart in the source
[5] = target: β-spectrin consisting of residues 1898–2083 (Spβ) (UniProt P11277); experiment: ITC
spin labeled SpαΔ 49R1 = spin labeled SpαΔ 49R1 (UniProt P02549); experiment: spin label EPR titration

Substance | Kd [5] | further results
α-spectrin (from UniProt P02549) | – | Kd [1]: 0.4 µM; Kd [2]: 0.5 µM; Kd [3]: > 200 µM; Kd [4]: 14 µM
cysteine-less fragment of the first 368 residues of α-spectrin (from UniProt P02549 1-368) (domain or fragment) | 0.9 µM | –
spin labeled SpαΔ 48R1 (from UniProt P02549 1-368) (domain or fragment) | 3.1 µM | –
spin labeled SpαΔ 53R1 (from UniProt P02549 1-368) (domain or fragment) | 3.3 µM | –
spin labeled SpαΔ 49R1 (from UniProt P02549 1-368) (domain or fragment) | > 30 µM | –
spin labeled SpαΔ 45R1 (from UniProt P02549 1-368) (domain or fragment) | 2.9 µM | –
β-spectrin consisting of residues 1898–2083 (Spβ) (from UniProt P11277 1898-2083) (domain or fragment) | – | Kd (spin labeled SpαΔ 49R1): 98 µM
spin labeled SpαΔ 20R1 (from UniProt P02549 1-368) (domain or fragment) | 1.5 µM | –
spin labeled SpαΔ 46R1 (from UniProt P02549 1-368) (domain or fragment) | 5.9 µM | –
